Assay results published in patent US20040072743A1 (priority 2000, published 2004).

Tests used:
[1] = female, NMRI, mouse, in vivo
[2] = female, NMRI, mouse, in vivo, sc

## H-KFFKFFKFFK-achc-b.Ala-TTCTAACATTTA-NH2 [Compound V]
[1]
  oral bioavailability (AUC [p.o. adm]/AUC [i.v. adm])×100%: 9%
[2]
  subcutaneous bioavailability (AUC [s.c.adm]/AUC [i.v. adm])×100%: 68%

## H-KFFKFFKFFK-b.cypr-g.abu-ACTTTGTCGCCA-NH2 [Compound IV]
[1]
  oral bioavailability (AUC [p.o. adm]/AUC [i.v. adm])×100%: 24%
[2]
  subcutaneous bioavailability (AUC [s.c.adm]/AUC [i.v. adm])×100%: 78%

## H-KFFKFFKFFK-g.abu-PheGly-TTCTAACATTTA-NH2 [Compound VI]
[1]
  oral bioavailability (AUC [p.o. adm]/AUC [i.v. adm])×100%: 6%
[2]
  subcutaneous bioavailability (AUC [s.c.adm]/AUC [i.v. adm])×100%: 62%

## H-KFFKFFKFFK-pfPhe-cha-TTCTAACATTTA-NH2 [Compound VII]
[1]
  oral bioavailability (AUC [p.o. adm]/AUC [i.v. adm])×100%: 54%
[2]
  subcutaneous bioavailability (AUC [s.c.adm]/AUC [i.v. adm])×100%: 69%
